Measurements taken from US20030186419A1 (published 2003).

Biological target: T1, MASP-1 (MBL-associated serine protease 1) (human, UniProt P48740 20-699)
T1 sequence (looked up): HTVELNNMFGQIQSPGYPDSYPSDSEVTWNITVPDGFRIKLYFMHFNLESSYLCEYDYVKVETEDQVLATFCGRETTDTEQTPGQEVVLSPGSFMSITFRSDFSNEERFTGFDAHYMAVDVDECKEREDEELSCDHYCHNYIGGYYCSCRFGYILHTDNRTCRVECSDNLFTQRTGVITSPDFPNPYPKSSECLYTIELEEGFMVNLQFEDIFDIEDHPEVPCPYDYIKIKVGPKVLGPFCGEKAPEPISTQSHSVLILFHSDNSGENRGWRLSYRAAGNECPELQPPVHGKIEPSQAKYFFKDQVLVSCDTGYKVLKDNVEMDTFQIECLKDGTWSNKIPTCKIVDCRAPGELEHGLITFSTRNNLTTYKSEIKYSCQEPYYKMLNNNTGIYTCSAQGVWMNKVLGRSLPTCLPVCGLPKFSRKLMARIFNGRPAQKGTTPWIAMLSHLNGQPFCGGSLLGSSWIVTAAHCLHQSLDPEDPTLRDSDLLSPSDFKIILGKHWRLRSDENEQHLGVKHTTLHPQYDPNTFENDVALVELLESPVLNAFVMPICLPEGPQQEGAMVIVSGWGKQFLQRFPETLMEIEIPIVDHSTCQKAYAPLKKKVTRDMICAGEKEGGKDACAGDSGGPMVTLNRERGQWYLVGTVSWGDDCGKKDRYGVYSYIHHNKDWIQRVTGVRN
Test: co-capture on anti-MASP-1-coated wells, eluate blotted with anti-pMASP-3

binding result: no binding
B1: mannan binding lectin-associated serine protease 3 (MASP-3), natural protein from human plasma/serum (enzyme)
chain: HTVELNNMFGQIQSPGYPDSYPSDSEVTWNITVPDGFRIKLYFMHFNLESSYLCEYDYVKVETEDQVLATFCGRETTDTEQTPGQEVVLSPGSFMSITFRSDFSNEERFTGFDAHYMAVDVDECKEREDEELSCDHYCHNYIGGYYCSCRFGYILHTDNRTCRVECSDNLFTQRTGVITSPDFPNPYPKSSECLYTIELEEGFMVNLQFEDIFDIQDHPEVPCPYDYIKIKVGPKVLGPFCGEKAPEPISTQSHSVLILFHSDNSAENRGWRLSYRAAGNECPELQPPVHGKIEPSQAKYFFKDQVLVSCDTGYKVLKDNVEMDTFQIECLKDGTWSNKIPTCKIVDCRAPGELEHGLITFSTRNNLTTYKSEIKYSCQEPYYKMLNNNTGIYTCSAQGVWMNKVLGRSLPTCLPECGQPSRSLPSLVKRIIGGRNAEPGLFPWQALIVVEDTSRVPNDKWFGSGALLSASWILTAAHVLRSQRRDTTVIPVSKEHVTVYLGLHDVRDKSGAVNSSAARVVLHPDFNIQNYNHDIALVQLQEPVPLGPHVMPVCLPRLEPEGPAPHMLGLVAGWGISNPNVTVDEIISSGTRTLSDVLQYVKLPVVPHAECKTSYESRSGNYSVTENMFCAGYYEGGKDTCLGDSGGAFVIFDDLSQRWVVQGLVSWGGPEECGSKQVYGVYTKVSNYVDWVWEQMGLPQSVVEPQVER
notes: Natural protein in lectin preparations, MBL complexes or serum; On reducing blots only the B chain is seen; also called MBL-associated serine protease-3; lectin associated serine protease 110
